Data on twelve molecules can be found in patent US20210101992A1 (KIRA BIOTECH, published 2021).

One assay has as its target BSA (Bos taurus, UniProt P02769). Kind of assay: ELISA on coated antigens, absorbance at 450 nm. For orientation: ELISA stands for enzyme-linked immunosorbent assay.
Assay [1] concerns the target T1, CD83-His (ectodomain of human CD83 with 6x Histidine tag) (human, UniProt Q01151 20-144).
T1 construct: extracellular domain; Expressed in mammalian cells; also called hCD83-His; recombinant CD83-His; not shown: 6x Histidine tag
T1 sequence (looked up): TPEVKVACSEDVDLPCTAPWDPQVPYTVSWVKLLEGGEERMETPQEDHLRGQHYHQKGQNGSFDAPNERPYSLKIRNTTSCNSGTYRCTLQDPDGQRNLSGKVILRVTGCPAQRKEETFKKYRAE
Kind of assay: ELISA on coated CD83-His, detection with anti-kappa-HRP antibody, absorbance at 450 nm. How it is done: The reactivity of purified hFab 1F7 to CD83 was analysed by ELISA.

Assay [2] has as its target T2, CD83-Fc (human CD83 ectodomain, Fc tagged) (human, UniProt Q01151 20-144).
T2 construct: extracellular domain; The construct is not described beyond 'hCD83 ectodomain (Fc and His tagged)'; also called hCD83-Fc; not shown: Fc tag
T2 sequence (looked up): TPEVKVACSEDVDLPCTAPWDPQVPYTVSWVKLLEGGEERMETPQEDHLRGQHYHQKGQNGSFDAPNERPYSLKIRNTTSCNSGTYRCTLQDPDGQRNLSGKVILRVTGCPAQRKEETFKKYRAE
Kind of assay: binding of periplasmic hFab's to CD83-Fc, normalised to binding to 9E10.

Assay [3] has as its target T1, CD83-His (ectodomain of human CD83 with …). Kind of assay: relative binding of light chain shuffled clones against 1F7; CD83 construct not given.

Sequence of BSA (P02769 25-607 limits assumed): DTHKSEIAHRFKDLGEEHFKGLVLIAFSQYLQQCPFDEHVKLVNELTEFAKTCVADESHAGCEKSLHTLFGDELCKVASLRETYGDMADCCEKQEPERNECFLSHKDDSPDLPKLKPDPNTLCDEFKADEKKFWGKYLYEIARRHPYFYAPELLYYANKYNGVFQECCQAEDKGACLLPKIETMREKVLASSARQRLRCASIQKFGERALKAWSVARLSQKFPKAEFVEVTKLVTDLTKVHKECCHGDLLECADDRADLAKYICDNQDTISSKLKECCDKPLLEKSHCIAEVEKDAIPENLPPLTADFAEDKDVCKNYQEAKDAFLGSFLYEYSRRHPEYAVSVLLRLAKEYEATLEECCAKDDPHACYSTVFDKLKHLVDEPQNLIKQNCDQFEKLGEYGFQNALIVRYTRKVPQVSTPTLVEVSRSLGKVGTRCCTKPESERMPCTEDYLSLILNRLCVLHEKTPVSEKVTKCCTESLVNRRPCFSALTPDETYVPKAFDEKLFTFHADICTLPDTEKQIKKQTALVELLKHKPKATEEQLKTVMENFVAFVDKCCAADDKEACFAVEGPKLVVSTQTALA

B1: hFab 1F7 (Fab, V domains shown)
VH: EVQLVQSGGAVVQPGRSLRLSCAASGFTFSTYGMHWVRQAPGKGLEWVAAVSYDGSNKYYADFVKGRFTISRDNPKNTLYLQMNSLRADDTAVYYCARRGGLDIWGQGTTVTVSS
VL: LTQPPPASGTPGQRVTISCSGSSSNIGSNTVNWYQQLPGTAPKLLIYGNDQRPSGVPDRFSASKSGTSASLAISGLQSEDEAHYYCAAWDGSLNGGVIFGGGTKVTLG
notes: Human Fab from a phage display library; The heavy chain carries a 6x His tag and a myc tag, and the light chain was detected as kappa; also called 1F7 hFab; 1F7 Fab
Take B1: the binding result with BSA is on record as “no binding”. The “EC50 (read off the curve)” value in assay [1] was about 2 µg/mL.

B2: hFab4.8 (Fab, V domains shown)
VH: EVQLVQSGGAVVQPGRSLRLSCAASGFTFSTYGMHWVRQAPGKGLEWVAAVSYDGSNKYYADFVKGRFTISRDNPKNTLYLQMNSLRADDTAVYYCARRGGLDIWGQGTTVTVSS
VL: MTQSPSSLSASVGDRVTITCQASQDISNYLNWYQQKPGKAPKLLIYDASNLETGVPSRFSGSGSGTDFTFTISSLQPDDFATYYCQQTYSWPRTFGQGTKLEIKR
notes: Light chain shuffled variant of 1F7, expressed as hFab in the E. coli periplasm
In the case of B2, the binding result in assay [2] and in assay [3] was “binds” each time.

B3: hFab4.9 (Fab, V domains shown)
VH: EVQLVQSGGAVVQPGRSLRLSCAASGFTFSTYGMHWVRQAPGKGLEWVAAVSYDGSNKYYADFVKGRFTISRDNPKNTLYLQMNSLRADDTAVYYCARRGGLDIWGQGTTVTVSS
VL: MTQSPSSLSASVGHPVTITCRASQSLISYLNWYHQKPGKAPKLLIYAASILQSGVPSRFSGSGSGTDFTLTISSLQPENFASYYCQHTDSFPRTFGHGTKVEIKR
notes: Light chain shuffled variant of 1F7
As to B3, the binding result in assay [3] is listed as “binds”.

B4: hFab4.10 (Fab, V domains shown)
VH: EVQLVQSGGAVVQPGRSLRLSCAASGFTFSTYGMHWVRQAPGKGLEWVAAVSYDGSNKYYADFVKGRFTISRDNPKNTLYLQMNSLRADDTAVYYCARRGGLDIWGQGTTVTVSS
VL: LTQPPSASGTPGQGVTISCRGSTSNIGNNVVNWYQHVPGSAPKLLIWSNIQRPSGIPDRFSGSKSGTSASLAISGLQSEDEAVYYCAVWDDGLAGWVFGGGTTVTVLS
notes: as for B3
On to B4, for which the binding result in assay [3] is “binds”.

B5: hFab4.5 (Fab, V domains shown)
VH: EVQLVQSGGAVVQPGRSLRLSCAASGFTFSTYGMHWVRQAPGKGLEWVAAVSYDGSNKYYADFVKGRFTISRDNPKNTLYLQMNSLRADDTAVYYCARRGGLDIWGQGTTVTVSS
VL: LTQSPLSLPVTLGQPASISCKSSQSLVDSDGNTYLNWFQQRPGQSPRRLIYKVSNRDSGVPDRFSGSGSGTDFTLKISRVEAEDVGVYYCMQGTHWPRTFGQGTKVEIKR
notes: as for B2
For B5, the binding result in assay [2] and in assay [3] was “binds” in each case.

B6: hFab4.2 (Fab, V domains shown)
VH: EVQLVQSGGAVVQPGRSLRLSCAASGFTFSTYGMHWVRQAPGKGLEWVAAVSYDGSNKYYADFVKGRFTISRDNPKNTLYLQMNSLRADDTAVYYCARRGGLDIWGQGTTVTVSS
VL: MTHTPLSLSVTPGQPASISCKSSQSLLHSDGKTYLYWYLQRPGQSPQPLIYEVSNRFSGVPDRFSGSGSGTDFTLKISRVEAEDVGVYYCMQSLQLWTFGQGTKVEIKR
notes: as for B3
Take B6: in assay [3], the binding result was “binds”.

B7: hFab4.12 (Fab, V domains shown)
VH: EVQLVQSGGAVVQPGRSLRLSCAASGFTFSTYGMHWVRQAPGKGLEWVAAVSYDGSNKYYADFVKGRFTISRDNPKNTLYLQMNSLRADDTAVYYCARRGGLDIWGQGTTVTVSS
VL: MTQAPVVSVALEQTVRITCQGDSLAIYYDFWYQHKPGQAPVLVIYGKNNRPSGIPHRFSGSSSNTDSLTITGAQAEDEADYYCNSRDSSGNHWVFGGGTNLTVLG
notes: as for B3
For B7, in assay [3], the binding result was “binds”.

B8: hFab4.1 (Fab, V domains shown)
VH: EVQLVQSGGAVVQPGRSLRLSCAASGFTFSTYGMHWVRQAPGKGLEWVAAVSYDGSNKYYADFVKGRFTISRDNPKNTLYLQMNSLRADDTAVYYCARRGGLDIWGQGTTVTVSS
VL: VTQPPSASGTPGQRVTISCSGSSSNIGTNPVNWYQQLPGTAPKLLIYTTDQRPSGVPDRFSGSKSGTSASLAISGLQSEDEADYYCAAWDDSLSGLYVFGTGTKVTVLG
notes: as for B3
With B8, the binding result in assay [3] is “binds”.

B9: hFab4.4 (Fab, V domains shown)
VH: EVQLVQSGGAVVQPGRSLRLSCAASGFTFSTYGMHWVRQAPGKGLEWVAAVSYDGSNKYYADFVKGRFTISRDNPKNTLYLQMNSLRADDTAVYYCARRGGLDIWGQGTTVTVSS
VL: MTQSPLSLPVTLGQPASISCRSSQSLVDSAGNTFLHWFHQRPGQSPRRLIYKVSNRDSGVPDRFSGSGSGTDFTLKISRVEAEDVGVYYCMQGTHWPRTFGQGTKVEIKR
notes: as for B2
On to B9, for which the binding result in assay [2] and in assay [3] was “binds” in each case.

B10: hFab4.7 (Fab, V domains shown)
VH: EVQLVQSGGAVVQPGRSLRLSCAASGFTFSTYGMHWVRQAPGKGLEWVAAVSYDGSNKYYADFVKGRFTISRDNPKNTLYLQMNSLRADDTAVYYCARRGGLDIWGQGTTVTVSS
VL: MTQSPLSLPVTLGQPASISCRSSQSLVHSDGNMYLNWFQQRPGQSPRRLIYKVSNRDSGVPDRFSGSGSGTDFTLKISRVEAEDVGVYYCMQATQPTWTFGQGTKLEIKR
notes: as for B3
For B10, the binding result in assay [3] is “binds”.

B11: hFab4.3 (Fab, V domains shown)
VH: EVQLVQSGGAVVQPGRSLRLSCAASGFTFSTYGMHWVRQAPGKGLEWVAAVSYDGSNKYYADFVKGRFTISRDNPKNTLYLQMNSLRADDTAVYYCARRGGLDIWGQGTTVTVSS
VL: MTQSPLSLPVTLGQPASISCRSSQSLIHSDGNTYLDWFQQRPGQSPRRLIYKVSNRDSGVPDRFSGSGSGTDFTLRISRVEAEDIGVYYCMQATHWPRTFGQGTKVEIKR
notes: as for B3
Take B11: the binding result in assay [3] is given as “binds”.

B12: hFab4.18 (Fab, V domains shown)
VH: EVQLVQSGGAVVQPGRSLRLSCAASGFTFSTYGMHWVRQAPGKGLEWVAAVSYDGSNKYYADFVKGRFTISRDNPKNTLYLQMNSLRADDTAVYYCARRGGLDIWGQGTTVTVSS
VL: LTQSPLSLPVTLGQPASISCKSNQSLVHSDGNTYLNWFQQRPGQSPRRLIYKVSNRDSGVPDRFSGSGSGTDFTLKINRVEAEDVGVYYCMQGTQWPRTFGQGTKLDIKR
notes: as for B3
For the molecule B12, the binding result in assay [3] is recorded as “binds”.

Usually EC50 (read off the curve) stands for the concentration needed to bring the measured effect to its halfway point. The low end stands for greater potency, the high end for weaker potency.
